# Measured values reported in PMC6303017, “Effects of RNA structure and salt concentration on the affinity and kinetics of interactions between pentatricopeptide repeat proteins and their RNA ligands”.
# B1: atpH SPR RNA (ssRNA)
# RNA: GAUUGUAUCCUUAACCAUUUCUUUU
# B2: atpH-23mer (ssRNA)
# RNA: AUUGUAUCCUUAACCAUUUCUUU
# B3: petB SPR RNA (ssRNA)
# RNA: UGGUAGUUCGACGUGGAUUUU
# B4: petB RNA (GMS/FB) (ssRNA)
# RNA: GGUAGUUCGACCGUGGA
# Tests used:
# PPR10 [1] = molecular target: T1, PPR10 (UniProt B8Y6I0 96-786); test: SPR; 150 mM NaCl; ka ~2e7 M-1s-1; EMSA: 40 mM Tris-HCl pH 7.5, 140 mM NaCl, 10% glycerol, 4 mM DTT, 0.1 mg/mL BSA, 0.5 mg/mL heparin, RNAsin, 5 pM RNA, 25 C, 30 min; SPR: 100 mM HEPES pH 7.5, 150 mM NaCl, 3 mM EDTA, 1 mM 2-mercaptoethanol, 0.005% P20; details: protein: recombinant; tags: MBP fusion, MBP cleaved off; label: 3' biotin, 6-carbon linker; unstructured
# T1 sequence: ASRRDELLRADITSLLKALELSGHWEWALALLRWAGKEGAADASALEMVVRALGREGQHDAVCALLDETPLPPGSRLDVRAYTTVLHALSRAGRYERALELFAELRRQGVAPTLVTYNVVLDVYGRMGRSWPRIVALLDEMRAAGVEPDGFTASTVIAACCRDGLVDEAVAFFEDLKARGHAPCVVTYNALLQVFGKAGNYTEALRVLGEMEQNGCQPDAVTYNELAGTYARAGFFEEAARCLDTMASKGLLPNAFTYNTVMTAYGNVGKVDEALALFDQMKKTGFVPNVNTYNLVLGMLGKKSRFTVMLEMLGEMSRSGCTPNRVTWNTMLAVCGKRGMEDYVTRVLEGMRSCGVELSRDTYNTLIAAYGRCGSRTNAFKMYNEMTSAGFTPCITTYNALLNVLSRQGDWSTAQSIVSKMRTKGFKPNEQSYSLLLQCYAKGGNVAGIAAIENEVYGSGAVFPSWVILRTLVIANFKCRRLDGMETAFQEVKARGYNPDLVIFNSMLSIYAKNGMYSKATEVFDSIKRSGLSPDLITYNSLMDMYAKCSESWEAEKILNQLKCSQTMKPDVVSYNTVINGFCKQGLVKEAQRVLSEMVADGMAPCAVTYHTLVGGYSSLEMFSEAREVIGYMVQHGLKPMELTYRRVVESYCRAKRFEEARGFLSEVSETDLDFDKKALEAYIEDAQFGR
# PPR10 [2] = molecular target: T1, PPR10; test: EMSA; 0.5 mg/mL heparin, 140 mM NaCl; EMSA: 40 mM Tris-HCl pH 7.5, 140 mM NaCl, 10% glycerol, 4 mM DTT, 0.1 mg/mL BSA, 0.5 mg/mL heparin, RNAsin, 5 pM RNA, 25 C, 30 min; SPR: 100 mM HEPES pH 7.5, 150 mM NaCl, 3 mM EDTA, 1 mM 2-mercaptoethanol, 0.005% P20; details: protein: recombinant; tags: MBP fusion, MBP cleaved off; label: 5' 32P; unstructured
# HCF152 [3] = molecular target: T2, HCF152 (UniProt Q9SF38 66-778); test: SPR; 150 mM NaCl; half-life ~2 h; KD ~30-fold lower than earlier EMSA; EMSA: 40 mM Tris-HCl pH 7.5, 140 mM NaCl, 10% glycerol, 4 mM DTT, 0.1 mg/mL BSA, 0.5 mg/mL heparin, RNAsin, 5 pM RNA, 25 C, 30 min; SPR: 100 mM HEPES pH 7.5, 150 mM NaCl, 3 mM EDTA, 1 mM 2-mercaptoethanol, 0.005% P20; details: protein: recombinant; tags: MBP fusion, MBP cleaved off; label: 3' biotin, 6-carbon linker
# T2 sequence: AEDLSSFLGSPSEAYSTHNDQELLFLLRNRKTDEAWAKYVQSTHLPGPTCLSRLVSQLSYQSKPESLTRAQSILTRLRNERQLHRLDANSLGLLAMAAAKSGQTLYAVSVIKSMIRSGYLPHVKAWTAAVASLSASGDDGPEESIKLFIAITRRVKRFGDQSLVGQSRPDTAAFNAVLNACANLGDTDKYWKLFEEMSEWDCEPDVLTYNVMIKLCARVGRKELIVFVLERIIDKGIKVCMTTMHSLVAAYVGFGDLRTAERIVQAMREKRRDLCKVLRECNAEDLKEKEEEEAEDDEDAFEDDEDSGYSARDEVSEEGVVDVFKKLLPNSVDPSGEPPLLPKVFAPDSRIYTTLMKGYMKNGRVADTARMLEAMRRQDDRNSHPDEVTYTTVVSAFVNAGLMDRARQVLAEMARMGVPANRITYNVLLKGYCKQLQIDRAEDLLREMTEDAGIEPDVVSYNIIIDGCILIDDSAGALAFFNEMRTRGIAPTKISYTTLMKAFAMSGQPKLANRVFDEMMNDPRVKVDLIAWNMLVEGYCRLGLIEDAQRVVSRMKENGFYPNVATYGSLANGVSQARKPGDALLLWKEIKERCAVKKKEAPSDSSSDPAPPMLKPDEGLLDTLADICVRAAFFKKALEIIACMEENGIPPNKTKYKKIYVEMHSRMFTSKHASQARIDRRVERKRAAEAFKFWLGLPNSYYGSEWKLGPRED
# HCF152 [4] = molecular target: T2, HCF152; test: filter binding; 30 min and overnight (~13 h); tighter apparent KD overnight; EMSA: 40 mM Tris-HCl pH 7.5, 140 mM NaCl, 10% glycerol, 4 mM DTT, 0.1 mg/mL BSA, 0.5 mg/mL heparin, RNAsin, 5 pM RNA, 25 C, 30 min; SPR: 100 mM HEPES pH 7.5, 150 mM NaCl, 3 mM EDTA, 1 mM 2-mercaptoethanol, 0.005% P20; details: protein: recombinant; tags: MBP fusion, MBP cleaved off; label: 5' 32P
binder,measurement,setting,value
B1,Kd,PPR10 [1],~0.01 nM
B2,Kd,PPR10 [2],~0.05 nM
B3,binding result,HCF152 [3],binds
B4,binding result,HCF152 [4],binds
